The results in this text go back to patent US20260116991A1.

Experiment [1] addresses murine GPC3-his protein (Sino Biological, Cat. No. 50989-M08B) (murine) (UniProt Q8CFZ4). Kind of experiment: ELISA, coated murine GPC3-His. (In general: In an ELISA, binding on a coated surface is turned into a signal by an enzyme label.)
Experiment [2] addresses monkey GPC3-His protein (monkey). Kind of experiment: ELISA, monkey GPC3-His coated; antibody 0.0008 nM.
The target is the same in experiment [3]. Put plainly: ELISA, monkey GPC3-His coated; antibody 0.004 nM.
Experiment [4] has the same target. Put plainly: ELISA, monkey GPC3-His coated; antibody 13.33 nM.
The target is the same in experiment [5]. Put plainly: ELISA, monkey GPC3-His coated; antibody 0.11 nM.
Experiment [6] shares this target. Kind of experiment: ELISA, monkey GPC3-His coated; antibody 0.02 nM.
For experiment [7] the target is unchanged. Put plainly: ELISA, monkey GPC3-His coated; antibody 66.66 nM.
Experiment [8] has the same target. Kind of experiment: ELISA, monkey GPC3-His coated; antibody 2.67 nM.
The target of experiment [9] is monkey GPC3 on HEK293T-monkey GPC3 cells (monkey). Put plainly: FACS on HEK293T-monkey GPC3 cells.
Experiment [10] deals with monkey GPC3-His protein (monkey). Kind of experiment: ELISA, monkey GPC3-His coated; antibody 0.53 nM.

murine GPC3-his protein (Sino Biological, Cat. No. 50989-M08B) (murine), sequence (Q8CFZ4 25-558 limits assumed): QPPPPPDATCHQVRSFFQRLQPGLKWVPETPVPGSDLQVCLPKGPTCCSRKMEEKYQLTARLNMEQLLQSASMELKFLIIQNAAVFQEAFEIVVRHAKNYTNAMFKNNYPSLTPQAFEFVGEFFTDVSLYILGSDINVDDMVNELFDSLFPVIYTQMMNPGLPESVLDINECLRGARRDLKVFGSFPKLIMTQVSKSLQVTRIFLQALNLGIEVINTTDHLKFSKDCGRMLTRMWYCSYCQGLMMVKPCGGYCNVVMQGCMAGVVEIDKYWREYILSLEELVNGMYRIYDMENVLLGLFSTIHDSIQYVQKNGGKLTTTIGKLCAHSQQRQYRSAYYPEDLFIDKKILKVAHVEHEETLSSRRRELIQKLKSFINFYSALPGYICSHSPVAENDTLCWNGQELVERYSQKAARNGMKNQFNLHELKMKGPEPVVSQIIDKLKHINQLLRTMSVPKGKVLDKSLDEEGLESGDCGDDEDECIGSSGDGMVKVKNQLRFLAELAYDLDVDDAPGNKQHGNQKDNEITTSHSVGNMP

B1: F1.57.21 human-murine chimeric antibody (antibody, human IgG1, kappa, V domains shown)
VH: QVQLQQSGAELARPGASVKLSCKASGYTFTSYGISWVKQITGQGLEWIGEIYPRSESTYYNEKFKGKATLTADKSSSTAYMELRSLTSEDSAVYFCARDYGNIYSFAYWGQGTLVTVSA
VL: DIQMTQSPASLSASVGETVTITCRTSENIYSYLAWYQQKQGKSPQLLVYNAKTLAEGVPSRFSGSGSGTQFSLKINSLQPEDFGSYYCQHHYGTPLTFGAGTKLELKR
Consider B1, for which, in [1], the OD450 at 0.0001 nM antibody worked out at 0.05 OD450 nm, the OD450 at 0.001 nM antibody came out at 0.06 OD450 nm, the OD450 at 0.01 nM antibody is 0.07 OD450 nm and the OD450 at 0.1 nM antibody worked out at 0.13 OD450 nm. In [1], this molecule came in with an OD450 at 1 nM antibody of 0.2 OD450 nm, an OD450 at 10 nM antibody of 0.79 OD450 nm and an OD450 at 100 nM antibody of 0.65 OD450 nm.

B2: F1.115.8 human-murine chimeric antibody (antibody, human IgG1, kappa, V domains shown)
VH: EVQLQQSGPELVKPGASVKMSCKASGYTFTEYYMHWVKQSHGKSLEWIGYIYPNNGGNGYNQKFKGKATLTVDKSSSTAYMGLRSLTSEDSAVYYCVRGYYSNWYFDVWGTGTTVTVSS
VL: DVLMTQTPLSLPVSLGDQASISCRSSQSIVHSNGKTYLEWYLQKPGQSPKLLIYKVSNRFSGVPDRFSGSGSGTDFTLKISRVEAEDLGVYYCFQGSHVPFTFGSGTKLEIKR
In [1], B2 registered an OD450 at 0.0001 nM antibody of 0.05 OD450 nm, an OD450 at 0.001 nM antibody of 0.05 OD450 nm, an OD450 at 0.01 nM antibody of 0.07 OD450 nm and an OD450 at 0.1 nM antibody of 0.34 OD450 nm. Further, in experiment [1], the OD450 at 1 nM antibody is 0.4 OD450 nm, the OD450 at 10 nM antibody is 0.7 OD450 nm and the OD450 at 100 nM antibody was 0.6 OD450 nm.

B3: F1.120.16 human-murine chimeric antibody (antibody, human IgG1, kappa, V domains shown)
VH: EFQLQQSGPELVKPGASVKISCKASGYSFTDYNMNWVKQSNGKSLEWIGLIHPKFSVTSYNRKFKGKATLTVDQSSSTAYMQLNSLTSEDSAVYYCARWAGDYFDYWGQGTTLTVSS
VL: DIVLTQSPATLSVTPGDSVSLSCRASQSISNNLHWYQQKSHESPRLLIKYASQSISGIPSRFSGSGSGTDFTLTINSVETEDFGMYFCQQSNSWPQTFGGGTKLEIKR
In [1], B3 returned an OD450 at 0.0001 nM antibody of 0.05 OD450 nm, an OD450 at 0.001 nM antibody of 0.07 OD450 nm, an OD450 at 0.01 nM antibody of 0.16 OD450 nm and an OD450 at 0.1 nM antibody of 0.72 OD450 nm. Also, in experiment [1], the OD450 at 1 nM antibody is 0.76 OD450 nm, the OD450 at 10 nM antibody stood at 0.8 OD450 nm and the OD450 at 100 nM antibody was determined as 0.54 OD450 nm.

B4: hAb006LH1L1 (antibody, human IgG1, V domains shown)
VH: EVQLVQSGAEVKKPGSSVKVSCKASGYTFSDYEIHWVRQAPGQGLEWMGAIDPKTGNTAYNQKFMGRVTITADKSTSTAYMELSSLRSEDTAVYYCTRYFSFAYWGQGTLVTVSS
VL: DIVMTQTPLSLPVTPGEPASISCRSSQTFVHSNGNTYLQWYLQKPGQSPQLLIYKVSNRFSGVPDRFSGSGSGTDFTLKISRVEAEDVGVYYCFQGSHVPYTFGQGTKLEIK
For orientation: EC50 means the concentration at which the effect is half-maximal. For B4, the OD450 nm in [2] amounted to 0.121; in experiment [3], 0.369; in experiment [4] it was 2.56; in experiment [5] it was 2.02; in experiment [6], 1.1; in experiment [7], 2.48. In addition, the OD450 nm came out at 2.43 in [8] and 2.5 in experiment [10]. For the same molecule, the 50% effective concentration (EC50) in experiment [9] turned out to be 1.53 nM. This molecule displayed a Max MFI in [9] of 33500 MFI.

B5: hAb007LH3L1b (antibody, human IgG1, V domains shown)
VH: EVQLVQSGAEVKKPGSSVKVSCKASGYTFTDYEMHWVRQAPGQGLEWMGTIDPETGNTAYNQKFKGRVTLTADKSTSTAYMELSSLRSEDTAVYYCTRPYSLTYWGQGTLVTVSS
VL: DIVMTQTPLSLPVTPGEPASISCRSSQSFVHSNRDTYLQWYLQKPGQSPQLLIYKVSNRFSGVPDRFSGSGSGTDFTLKISRVEAEDVGVYYCFQGSHVPYTFGQGTKLEIK
B5: the OD450 nm in experiment [2] was 0.069; in [3], 0.103; in experiment [4], 2.47; in experiment [5], 0.801; in experiment [6], 0.252; in [7], 2.58. Further, the results for the OD450 nm in [8] and in [10] were 2.37 and 1.95, respectively. The molecule further showed an EC50 in experiment [9] of 13.7 nM. The molecule further showed a Max MFI in [9] of 35900 MFI.

B6: hAb006LH3L1 (antibody, human IgG1, V domains shown)
VH: EVQLVQSGAEVKKPGSSVKVSCKASGYTFTDYEIHWVRQAPGQGLEWMGAIDPKTGNTAYNQKFMGRVTLTADKSTSTAYMELSSLRSEDTAVYYCTRYFSFAYWGQGTLVTVSS
VL: DIVMTQTPLSLPVTPGEPASISCRSSQTFVHSNGNTYLQWYLQKPGQSPQLLIYKVSNRFSGVPDRFSGSGSGTDFTLKISRVEAEDVGVYYCFQGSHVPYTFGQGTKLEIK
Turning to B6, the OD450 nm in experiment [2] was determined as 0.116; in [3] it was 0.294; in experiment [4], 2.44; in experiment [5], 1.75; in [6], 0.911; in experiment [7], 2.52. Besides, the OD450 nm in experiment [8] was determined as 2.36; in experiment [10], 2.1. Moreover, the EC50 in experiment [9] was found to be 1.7 nM. In experiment [9], this molecule displayed a Max MFI of 34600 MFI.

B7: hAb007LH2L1 (antibody, human IgG1, V domains shown)
VH: EVQLVQSGAEVKKPGSSVKVSCKASGYTFTDYEMHWVRQAPGQGLEWMGTIDPETGNTAYNQKFKGRVTITADKSTSTAYMELSSLRSEDTAVYYCTRPYSLTYWGQGTLVTVSS
VL: DIVMTQTPLSLPVTPGEPASISCRSSQSFVHSNGDTYLQWYLQKPGQSPQLLIYKVSNRFSGVPDRFSGSGSGTDFTLKISRVEAEDVGVYYCFQGSHVPYTFGQGTKLEIK
For the molecule B7, the OD450 nm in [2] was 0.101; in experiment [3], 0.253; in [4], 2.47; in [5] it was 1.74; in [6], 0.707; in [7] it was 2.57. The OD450 nm in experiment [8] was 2.47; in [10], 2.31. Further, in [9], the concentration giving a half-maximal response (EC50) is 14.8 nM. The Max MFI in [9] came to 37800 MFI.

B8: hAb007LH3L1 (antibody, human IgG1, V domains shown)
VH: EVQLVQSGAEVKKPGSSVKVSCKASGYTFTDYEMHWVRQAPGQGLEWMGTIDPETGNTAYNQKFKGRVTLTADKSTSTAYMELSSLRSEDTAVYYCTRPYSLTYWGQGTLVTVSS
VL: DIVMTQTPLSLPVTPGEPASISCRSSQSFVHSNGDTYLQWYLQKPGQSPQLLIYKVSNRFSGVPDRFSGSGSGTDFTLKISRVEAEDVGVYYCFQGSHVPYTFGQGTKLEIK
B8: the OD450 nm in experiment [2] was 0.079; in [3], 0.198; in [4] it was 2.39; in [5], 1.12; in experiment [6], 0.368; in experiment [7] it was 2.55. The OD450 nm turned out to be 2.39 in experiment [8] and 2.17 in experiment [10]. In experiment [9], the EC50 was 13.6 nM. Besides, in experiment [9], the Max MFI turned out to be 37400 MFI.

B9: F1.73.9 human-murine chimeric antibody (antibody, human IgG1, kappa, V domains shown)
VH: QVQLKQSGAELVRPGASVKLSCKASGYTFTDYYINWVKQRPGQGLEWIARIYPGSGNTYYNEKFKGKATLTAEKSSSTAYMQFSSLTSEDSAVYFCACSTYYTMDYWGQGTSVTVSS
VL: QIVLTQSPAIMSASLGERVTMTCTASSGVSSSYLHWYQQKPGSSPKLWIYTTSNLASGVPARFSGSGSGTSYSLTISSMEAEDAATYYCHQYHRSPYTFGGGTKLEIKR
For the molecule B9, in experiment [1], the OD450 at 0.0001 nM antibody amounted to 0.05 OD450 nm, the OD450 at 0.001 nM antibody worked out at 0.06 OD450 nm, the OD450 at 0.01 nM antibody worked out at 0.06 OD450 nm and the OD450 at 0.1 nM antibody amounted to 0.58 OD450 nm. Besides, in [1], the OD450 at 1 nM antibody turned out to be 0.41 OD450 nm, the OD450 at 10 nM antibody is 0.86 OD450 nm and the OD450 at 100 nM antibody came to 0.52 OD450 nm.
